The values that follow come from PMC5454392, “Selective BET bromodomain inhibition as an antifungal therapeutic strategy” (Nature Communications, 2017).

T1: CaBdf1 BD2 (GST-tagged, wild-type) (Candida albicans (strain SC5314 / ATCC …, UniProt Q5A4W8))
T1 chain: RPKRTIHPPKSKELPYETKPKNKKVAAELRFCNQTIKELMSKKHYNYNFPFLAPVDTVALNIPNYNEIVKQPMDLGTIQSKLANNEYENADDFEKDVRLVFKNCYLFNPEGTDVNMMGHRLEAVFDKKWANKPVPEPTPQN

T2: CaBdf1 BD1 (GST-tagged, wild-type) (Candida albicans (strain SC5314 / ATCC …, UniProt Q5A4W8))
T2 chain: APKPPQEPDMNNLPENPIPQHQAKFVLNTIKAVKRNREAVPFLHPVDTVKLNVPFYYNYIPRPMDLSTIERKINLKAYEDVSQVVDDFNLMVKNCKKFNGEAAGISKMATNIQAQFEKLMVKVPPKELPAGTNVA

Square brackets hold non-standard residues; d marks the D form. Ends that are not written are not given here. Arg(Me2a) = CN(C)C(=N)NCCC[C@H](N)C(=O)O; Lys(Me3) = C[N+](C)(C)CCCC[C@H](N)C(=O)O; Arg(Me2s) = CN=C(NC)NCCC[C@H](N)C(=O)O; pT = C[C@@H](OP(=O)(O)O)[C@H](N)C(=O)O; Lys(Me2) = CN(C)CCCC[C@H](N)C(=O)O; pS = N[C@@H](COP(=O)(O)O)C(=O)O; Me2a = not defined here; me2a = not defined here

The target of the first assay is T1, CaBdf1 BD2 (GST-tagged, wild-type). Briefly: histone peptide array (Active Motif MODified), 1 uM GST-tagged bromodomain, anti-GST detection, normalized mean intensity.
Take SGRGKGGKGLGKGGAKRHR (S G Rme2s G K G G K G L G K G G A K R H R): the binding score worked out at 0.00666.
As to A[Arg(Me2s)][pT]K(Me)QTARKSTGGKAPRKQ, the binding score stood at 0.0037.
In the case of SGRGKGGKGLGKGGAKRHR (S G R G K G G Kac G L G K G G A Kac R H R), the binding score is 0.00999.
ARTKQTARKSTGGKAPRKQ (A Rme2s T Kme2 Q T A Rme2s Kme1 S T G G K A P R K Q): the binding score is 0.00407.
On the same count and under the same terms, as for A[Arg(Me2a)]T[Lys(Me2)]QTAR[Lys(Me2)]STGGKAPRKQ, the figure is 0.00222; as for SGRGKGGKGLGKGGAKRHR (S G Rme2s G K G G Kac G L G K G G A K R H R), 0.00777.
The same measure, in the same setting: the result for ARTKQTARKSTGGKAPRKQ (A R T K Q T A Rme2a Kme2 pS T G G K A P R K Q) reads 0.00259.
As to PRKQLATKAARK[pS]APATGG, the binding score came to 0.00555.
The same measure, in the same setting: the result for ARTKQTARKSTGGKAPRKQ (A Rme2a T Kme1 Q T A Rme2a K S T G G K A P R K Q) reads 0.00259.
Same read-out and setting: the result for AR(me2a)TK(Ac)QTAR(me2a)K(me2)STGGKAPRKQ (reading uncertain) reads 0.00703; that for ARTKQTARKSTGGKAPRKQ (A R T K Q T A Rme2a K S T G G K A P R K Q), 0.00222.
As to A[Arg(Me2s)][pT]KQTARKSTGGKAPRKQ, the binding score is 0.00074.
As for ARTKQTARKSTGGKAPRKQ (A R T K Q T A R Kac S T G G K A P R K Q), the binding score was 0.0037.
Still for that read-out and setting: the result for ARTK(Me2)QTARKSTGGKAPRKQ reads 0.00148; that for RKSAPATGGVKKPHRYRPG (R K S A P A T G G V Kac K P H R Y R P G) [H3 26-45], 0.0122.
ARTK(me2)QTAR(me2a)K(me2)STGGKAPRKQ (reading uncertain): the binding score is 0.00259.
For the molecule A[Arg(Me2s)]T[Lys(Me2)]QTARKSTGGKAPRKQ, the binding score came to 0.
In turn, SGRGKGGKGLGKGGAKRHR (pS G R G K G G K G L G K G G A K R H R) showed a binding score of 0.00444.
On the same count and under the same terms, as for ARTKQTARKSTGGKAPRKQ (A R T Kme3 Q T A Rme2s Kme2 S T G G K A P R K Q), the figure is 0.00407; as for SGRGKGGKGLGKGGAKRHR (pS G R G Kac G G K G L G K G G A K R H R), 0.00555; as for PRKQLATKAAR(Me2s)K(Me2)SAPATGG, 0.00222.
Same read-out and setting: the result for AR(Me2a)TK(Ac)QTAR(Me2a)K(Ac)STGGKAPRKQ (reading uncertain) reads 0.0107; that for ARTKQTARKSTGGKAPRKQ (A Rme2a T Kme1 Q T A R Kme2 S T G G K A P R K Q), 0.0037.
ARTKQTARKSTGGKAPRKQ (A R T K Q T A R K S pT G G Kac A P R K Q) gave a binding score of 0.00999.
Take PDPAK(Ac)SAPAPKKG[pS]K(Ac)KAVT: the binding score stood at 0.174.
Take ARTKQTARKSTGGKAPRKQ (A Rme2s T Kme2 Q T A Rme2a Kme2 S T G G K A P R K Q): the binding score came out at 0.00666.
Still for that read-out and setting: the result for ARTKQTARKSTGGKAPRKQ (A Rme2a T Kac Q T A R Kme2 S T G G K A P R K Q) reads 0.00407.
Take SGRGKGGKGLGKGGAKRHR (S G R G Kac G G Kac G L G Kac G G A K R H R): the binding score worked out at 0.179.
Still for that read-out and setting: the result for PRKQLATKAARK(Me3)SAPATGG reads 0.00851.
On the same count and under the same terms, as for PDPAK(Ac)SAPAPKKG[pS]KKAVT, the figure is 0.00074.
ARTK(Me3)QTAR(Me2a)K(Ac)STGGKAPRKQ (reading uncertain): the binding score worked out at 0.00888.

In a further assay the target is T2, CaBdf1 BD1 (GST-tagged, wild-type). Described as above.
SGRGKGGKGLGKGGAKRHR (S G Rme2s G K G G K G L G K G G A K R H R): the binding score was 0.00399.
Regarding ARTKQTARKSTGGKAPRKQ (A Rme2s T Kme3 Q T A Rme2s Kme1 S T G G K A P R K Q), the binding score turned out to be 0.00363.
On the same count and under the same terms, as for A[Arg(Me2s)][pT]K(Me)QTARKSTGGKAPRKQ, the figure is 0.00181; as for AR(me2s)TK(me2)QTAR(me2s)K(me3)STGGKAPRKQ, 0.00218; as for SGRGKGGKGLGKGGAKRHR (S G R G K G G Kac G L G K G G A Kac R H R), 0.0228.
The same measure, in the same setting: as for ARTKQTARKSTGGKAPRKQ (A Rme2s T Kme2 Q T A Rme2s Kme1 S T G G K A P R K Q), the figure is 0.00544; as for A[Arg(Me2a)]T[Lys(Me2)]QTAR[Lys(Me2)]STGGKAPRKQ, 0.00399.
On the same count and under the same terms, the result for A[Arg(Me2a)]TK(Ac)QTA[Arg(Me2a)][Lys(Me3)]STGGKAPRKQ reads 0.00834.
On to ARTK(Ac)QTAR(me2s)K(Ac)STGGKAPRKQ, for which the binding score worked out at 0.0729.
SGRGKGGKGLGKGGAKRHR (S G Rme2s G K G G Kac G L G K G G A K R H R): the binding score stood at 0.0152.
On the same count and under the same terms, as for ARTKQTARKSTGGKAPRKQ (A R T K Q T A Rme2a Kme2 pS T G G K A P R K Q), the figure is 0.00471.
In turn, AR(Me2s)TK(Me3)QTAR(Me2s)K(Me3)STGGKAPRKQ showed a binding score of 0.00653.
Consider A[Arg(Me2a)]T[Lys(Me3)]QTA[Arg(Me2a)][Lys(Me2)]STGGKAPRKQ, for which the binding score stood at 0.00254.
Still for that read-out and setting: the result for PRKQLATKAARK[pS]APATGG reads 0.00218.
Same read-out and setting: as for ARTKQTARKSTGGKAPRKQ (A Rme2a T Kme1 Q T A Rme2a K S T G G K A P R K Q), the figure is 0.00435; as for AR(Me2a)TK(Me2)QTAR(Me2s)K(Me3)STGGKAPRKQ (reading uncertain), 0.00145; as for ARTKQTARKSTGGKAPRKQ (A R T K Q T A Rme2a K S T G G K A P R K Q), 0.00326.
Still for that read-out and setting: as for A[Arg(Me2s)][pT]KQTARKSTGGKAPRKQ, the figure is 0.00326.
For ARTKQTARKSTGGKAPRKQ (A R T K Q T A R Kac S T G G K A P R K Q), the binding score came out at 0.0087.
Still for that read-out and setting: the result for ARTK(Me2)QTARKSTGGKAPRKQ reads 0.00181; that for RKSAPATGGVKKPHRYRPG (R K S A P A T G G V Kac K P H R Y R P G) [H3 26-45], 0.0344; that for ARTK(me2)QTAR(me2a)K(me2)STGGKAPRKQ (reading uncertain), 0.000725.
On the same count and under the same terms, the result for A[Arg(Me2s)]T[Lys(Me2)]QTARKSTGGKAPRKQ reads 0.0029; that for SGRGKGGKGLGKGGAKRHR (pS G R G K G G K G L G K G G A K R H R), 0.00471.
Still for that read-out and setting: the result for ARTKQTARKSTGGKAPRKQ (A R T Kme3 Q T A Rme2s Kme2 S T G G K A P R K Q) reads 0.00254; that for AR(me2s)TK(Ac)QTAR(me2a)K(me2)STGGKAPRKQ (reading uncertain), 0.00979.
As for SGRGKGGKGLGKGGAKRHR (pS G R G Kac G G K G L G K G G A K R H R), the binding score is 0.0167.
The same measure, in the same setting: the result for PRKQLATKAAR(Me2s)K(Me2)SAPATGG reads 0.00254; that for AR(Me2a)TK(Ac)QTAR(Me2a)K(Ac)STGGKAPRKQ (reading uncertain), 0.0413.
The same measure, in the same setting: as for ARTKQTARKSTGGKAPRKQ (A R T K Q T A Rme2a Kme2 S pT G G K A P R K Q), the figure is 0.00435.
On to ARTKQTARKSTGGKAPRKQ (A R T Kme2 Q T A Rme2s Kme2 S T G G K A P R K Q), for which the binding score was found to be 0.00218.
The same measure, in the same setting: the result for ARTKQTARKSTGGKAPRKQ (A Rme2a T Kme1 Q T A R Kme2 S T G G K A P R K Q) reads 0.00326.
Still for that read-out and setting: the result for ARTKQTARKSTGGKAPRKQ (A Rme2a T Kac Q T A Rme2s Kme2 S T G G K A P R K Q) reads 0.00616.
PDPAK(Ac)SAPAPKKG[pS]K(Ac)KAVT came in with a binding score of 0.0656.
The molecule ARTKQTARKSTGGKAPRKQ (A Rme2s T Kme2 Q T A Rme2a Kme2 S T G G K A P R K Q) registered a binding score of 0.0029.
On to ARTKQTARKSTGGKAPRKQ (A Rme2a T Kac Q T A R Kme2 S T G G K A P R K Q), for which the binding score came to 0.0112.
Molecule ARTKQTARKSTGGKAPRKQ (A Rme2s T Kac Q T A Rme2s K S T G G K A P R K Q) displayed a binding score of 0.00363.
ARTKQTARKSTGGKAPRKQ (A R T K Q T A Rme2a Kac S pT G G K A P R K Q): the binding score was 0.00363.
The same measure, in the same setting: as for SGRGKGGKGLGKGGAKRHR (S G R G Kac G G Kac G L G Kac G G A K R H R), the figure is 0.0729; as for ARTKQTARKSTGGKAPRKQ (A R T K Q T A R Kme1 pS T G G K A P R K Q), 0.00181.
In the case of PRKQLATKAARK(Me3)SAPATGG, the binding score was found to be 0.00616.
Molecule PDPAK(Ac)SAPAPKKG[pS]KKAVT came in with a binding score of 0.00689.
As for ARTK(Me)QTAR(Me2a)K(Me2)STGGKAPRKQ (reading uncertain), the binding score turned out to be 0.0138.
On the same count and under the same terms, the result for ARTK(Me3)QTAR(Me2a)K(Ac)STGGKAPRKQ (reading uncertain) reads 0.0359.
